Assay results taken from patent US20250313627A1.

How the values were obtained:
[1] = biological target: human ROR1 (Receptor Tyrosine Kinase-Like Orphan Receptor 1) on the cell surface (human) (UniProt Q01973); assay: flow cytometry, LS174T cells expressing human ROR1 (low density)
[2] = biological target: human ROR1 (Receptor Tyrosine Kinase-Like Orphan Receptor 1) on the cell surface (human) (UniProt Q01973); assay: as above; remark: listed apart in the source
[3] = biological target: human ROR1 (Receptor Tyrosine Kinase-Like Orphan Receptor 1) on the cell surface (human) (UniProt Q01973); assay: flow cytometry, B16-F10 cells expressing human ROR1 (high density)
[4] = biological target: human ROR1 (Receptor Tyrosine Kinase-Like Orphan Receptor 1) on the cell surface (human) (UniProt Q01973); assay: as above; remark: listed apart in the source
[5] = biological target: human ROR1 (Receptor Tyrosine Kinase-Like Orphan Receptor 1) on the cell surface (human) (UniProt Q01973); assay: as above; remark: listed apart in the source
[6] = biological target: human ROR1 (Receptor Tyrosine Kinase-Like Orphan Receptor 1) on the cell surface (human) (UniProt Q01973); assay: as above; remark: listed apart in the source
[7] = biological target: human ROR1 (Receptor Tyrosine Kinase-Like Orphan Receptor 1) on the cell surface (human) (UniProt Q01973); assay: as above; remark: listed apart in the source
[8] = biological target: human ROR1 (Receptor Tyrosine Kinase-Like Orphan Receptor 1) on the cell surface (human) (UniProt Q01973); assay: as above; remark: listed apart in the source

Sequence of human ROR1 (Receptor Tyrosine Kinase-Like Orphan Receptor 1) on the cell surface (human) (Q01973 30-937): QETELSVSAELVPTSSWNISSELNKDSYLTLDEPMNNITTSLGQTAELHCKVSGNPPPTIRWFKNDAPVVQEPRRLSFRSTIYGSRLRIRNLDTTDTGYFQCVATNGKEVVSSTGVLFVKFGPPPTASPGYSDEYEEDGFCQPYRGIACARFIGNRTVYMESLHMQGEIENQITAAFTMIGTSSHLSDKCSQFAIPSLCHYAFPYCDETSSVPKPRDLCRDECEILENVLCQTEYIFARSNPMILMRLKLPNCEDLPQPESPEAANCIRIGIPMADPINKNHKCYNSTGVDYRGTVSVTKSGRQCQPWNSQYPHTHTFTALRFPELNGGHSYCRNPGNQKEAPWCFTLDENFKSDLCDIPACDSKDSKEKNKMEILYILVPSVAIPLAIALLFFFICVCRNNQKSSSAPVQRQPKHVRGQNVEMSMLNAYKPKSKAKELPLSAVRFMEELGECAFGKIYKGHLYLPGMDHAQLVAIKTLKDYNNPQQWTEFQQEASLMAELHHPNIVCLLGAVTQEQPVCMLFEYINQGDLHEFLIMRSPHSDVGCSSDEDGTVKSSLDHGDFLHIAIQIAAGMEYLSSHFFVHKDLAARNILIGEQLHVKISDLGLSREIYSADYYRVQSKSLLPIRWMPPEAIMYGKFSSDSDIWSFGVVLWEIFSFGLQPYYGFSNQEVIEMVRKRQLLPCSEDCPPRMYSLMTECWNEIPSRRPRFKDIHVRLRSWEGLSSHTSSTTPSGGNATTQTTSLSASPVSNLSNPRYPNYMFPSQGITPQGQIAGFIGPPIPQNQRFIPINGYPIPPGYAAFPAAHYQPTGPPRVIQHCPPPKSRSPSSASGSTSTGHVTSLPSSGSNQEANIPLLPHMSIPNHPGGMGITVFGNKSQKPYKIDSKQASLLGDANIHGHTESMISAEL

MFI [1]: 7960
MFI [2]: 36200
MFI [3]: 27100
MFI [4]: 21600
MFI [5]: 416000
MFI [6]: 35200
MFI [7]: 19900
MFI [8]: 38700
B1: anti-human ROR1 (clone 2A2)-PE (antibody, from another filing, V domains shown)
VH: QVQLQQSGAELVRPGASVTLSCKASGYTFSDYEMHWVIQTPVHGLEWIGAIDPETGGTAYNQKFKGKAILTADKSSSTAYMELRSLTSEDSAVYYCTGYYDYDSFTYWGQGTLVTVSA
VL: DIVMTQSQKIMSTTVGDRVSITCKASQNVDAAVAWYQQKPGQSPKLLIYSASNRYTGVPDRFTGSGSGTDFTLTISNMQSEDLADYFCQQYDIYPYTFGGGTKLEIK
